Columns and labels:
[1] = target: Bovine serum albumin (BSA; Ultra Pure) (bovine) (UniProt P02769); experiment: imaging mass cytometry; no peptide (background core); Ab 5 ug/ml
[2] = target: BCL2 peptide Ac-…-amide (amino acids 41-54 of human BCL2 with linkers) (human); experiment: imaging mass cytometry; peptide 2.50E-04 M in core; Ab 10 ug/ml
[3] = target: Bovine serum albumin (BSA; Ultra Pure) (bovine) (UniProt P02769); experiment: imaging mass cytometry; no peptide (second background core); Ab 10 ug/ml
[4] = target: BCL2 peptide Ac-…-amide (amino acids 41-54 of human BCL2 with linkers) (human); experiment: imaging mass cytometry; peptide 2.50E-08 M in core; Ab 10 ug/ml
[5] = target: Bovine serum albumin (BSA; Ultra Pure) (bovine) (UniProt P02769); experiment: imaging mass cytometry; no peptide (second background core); Ab 5 ug/ml
[6] = target: BCL2 peptide Ac-…-amide (amino acids 41-54 of human BCL2 with linkers) (human); experiment: imaging mass cytometry; peptide 2.50E-08 M in core (second core); Ab 1 ug/ml
[7] = target: BCL2 peptide Ac-…-amide (amino acids 41-54 of human BCL2 with linkers) (human); experiment: imaging mass cytometry; peptide 2.50E-05 M in core; Ab 5 ug/ml
[8] = target: BCL2 peptide Ac-…-amide (amino acids 41-54 of human BCL2 with linkers) (human); experiment: imaging mass cytometry; peptide 2.50E-06 M in core; Ab 10 ug/ml
[9] = target: BCL2 peptide Ac-…-amide (amino acids 41-54 of human BCL2 with linkers) (human); experiment: imaging mass cytometry; peptide 2.50E-06 M in core (second core); Ab 5 ug/ml
[10] = target: BCL2 peptide Ac-…-amide (amino acids 41-54 of human BCL2 with linkers) (human); experiment: imaging mass cytometry; peptide 2.50E-06 M in core (second core); Ab 1 ug/ml
[11] = target: BCL2 peptide Ac-…-amide (amino acids 41-54 of human BCL2 with linkers) (human); experiment: imaging mass cytometry; peptide 2.50E-04 M in core; Ab 1 ug/ml
[12] = target: BCL2 peptide Ac-…-amide (amino acids 41-54 of human BCL2 with linkers) (human); experiment: imaging mass cytometry; peptide 2.50E-07 M in core (second core); Ab 5 ug/ml
[13] = target: BCL2 peptide Ac-…-amide (amino acids 41-54 of human BCL2 with linkers) (human); experiment: imaging mass cytometry; peptide 2.50E-07 M in core
[14] = target: BCL2 peptide Ac-…-amide (amino acids 41-54 of human BCL2 with linkers) (human); experiment: imaging mass cytometry; peptide 2.50E-08 M in core (second core); Ab 10 ug/ml
[15] = target: BCL2 peptide Ac-…-amide (amino acids 41-54 of human BCL2 with linkers) (human); experiment: imaging mass cytometry; peptide 2.50E-05 M in core; Ab 10 ug/ml
[16] = target: BCL2 peptide Ac-…-amide (amino acids 41-54 of human BCL2 with linkers) (human); experiment: imaging mass cytometry; peptide 2.50E-05 M in core (second core); Ab 10 ug/ml
[17] = target: BCL2 peptide Ac-…-amide (amino acids 41-54 of human BCL2 with linkers) (human); experiment: imaging mass cytometry; peptide 2.50E-04 M in core (second core); Ab 10 ug/ml
[18] = target: BCL2 peptide Ac-…-amide (amino acids 41-54 of human BCL2 with linkers) (human); experiment: imaging mass cytometry; peptide 2.50E-07 M in core (second core); Ab 10 ug/ml
[19] = target: BCL2 peptide Ac-…-amide (amino acids 41-54 of human BCL2 with linkers) (human); experiment: imaging mass cytometry; peptide 2.50E-05 M in core
[20] = target: BCL2 peptide Ac-…-amide (amino acids 41-54 of human BCL2 with linkers) (human); experiment: imaging mass cytometry; peptide 2.50E-08 M in core; Ab 1 ug/ml
[21] = target: BCL2 peptide Ac-…-amide (amino acids 41-54 of human BCL2 with linkers) (human); experiment: imaging mass cytometry; peptide 2.50E-05 M in core (second core); Ab 1 ug/ml
[22] = target: BCL2 peptide Ac-…-amide (amino acids 41-54 of human BCL2 with linkers) (human); experiment: imaging mass cytometry; peptide 2.50E-05 M in core; Ab 1 ug/ml
[23] = target: Bovine serum albumin (BSA; Ultra Pure) (bovine) (UniProt P02769); experiment: imaging mass cytometry; no peptide (background cores)
[24] = target: BCL2 peptide Ac-…-amide (amino acids 41-54 of human BCL2 with linkers) (human); experiment: imaging mass cytometry; peptide 2.50E-08 M in core
[25] = target: BCL2 peptide Ac-…-amide (amino acids 41-54 of human BCL2 with linkers) (human); experiment: imaging mass cytometry; peptide 2.50E-06 M in core
[26] = target: BCL2 peptide Ac-…-amide (amino acids 41-54 of human BCL2 with linkers) (human); experiment: imaging mass cytometry; peptide 2.50E-08 M in core; Ab 5 ug/ml
[27] = target: Bovine serum albumin (BSA; Ultra Pure) (bovine) (UniProt P02769); experiment: imaging mass cytometry; no peptide (background core); Ab 1 ug/ml
[28] = target: BCL2 peptide Ac-…-amide (amino acids 41-54 of human BCL2 with linkers) (human); experiment: imaging mass cytometry; peptide 2.50E-04 M in core (second core); Ab 1 ug/ml
[29] = target: BCL2 peptide Ac-…-amide (amino acids 41-54 of human BCL2 with linkers) (human); experiment: imaging mass cytometry; peptide 2.50E-06 M in core; Ab 1 ug/ml
[30] = target: BCL2 peptide Ac-…-amide (amino acids 41-54 of human BCL2 with linkers) (human); experiment: imaging mass cytometry; peptide 2.50E-04 M in core

UniProt P02769, sequence (P02769 25-607 limits assumed): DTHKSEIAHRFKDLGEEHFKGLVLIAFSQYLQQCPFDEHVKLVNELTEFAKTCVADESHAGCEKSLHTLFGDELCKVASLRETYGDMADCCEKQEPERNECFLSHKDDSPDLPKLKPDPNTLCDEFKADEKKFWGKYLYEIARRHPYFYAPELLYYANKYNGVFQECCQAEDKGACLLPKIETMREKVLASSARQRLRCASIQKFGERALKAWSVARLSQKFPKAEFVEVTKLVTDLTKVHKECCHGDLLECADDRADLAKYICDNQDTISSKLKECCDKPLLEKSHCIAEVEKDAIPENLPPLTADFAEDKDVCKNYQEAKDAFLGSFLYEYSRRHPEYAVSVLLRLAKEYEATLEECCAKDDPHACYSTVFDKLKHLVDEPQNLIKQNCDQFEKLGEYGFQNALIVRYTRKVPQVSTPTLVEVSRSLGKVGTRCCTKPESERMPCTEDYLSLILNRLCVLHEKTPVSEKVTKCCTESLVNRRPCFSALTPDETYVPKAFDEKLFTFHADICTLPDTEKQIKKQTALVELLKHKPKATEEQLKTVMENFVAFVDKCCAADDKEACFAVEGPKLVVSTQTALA
BCL2 peptide Ac-…-amide (amino acids 41-54 of human BCL2 with linkers) (human), sequence (peptide, as listed by the source): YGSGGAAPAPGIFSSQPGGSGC

- Integrated Ion counts (per 150 micron square ROI) [1]: 1080 ion counts
- Integrated Ion counts (per 150 micron square ROI) [2]: 87400 ion counts
- Integrated Ion counts (per 150 micron square ROI) [3]: 1160 ion counts
- Integrated Ion counts (per 150 micron square ROI) [4]: 1230 ion counts
- Integrated Ion counts (per 150 micron square ROI) [5]: 2380 ion counts
- Integrated Ion counts (per 150 micron square ROI) [6]: 1410 ion counts
- Integrated Ion counts (per 150 micron square ROI) [7]: 16600 ion counts
- Integrated Ion counts (per 150 micron square ROI) [8]: 789000 ion counts
- Integrated Ion counts (per 150 micron square ROI) [9]: 3900 ion counts
- Integrated Ion counts (per 150 micron square ROI) [10]: 7700 ion counts
- Integrated Ion counts (per 150 micron square ROI) [11]: 59300 ion counts
- Integrated Ion counts (per 150 micron square ROI) [12]: 1400 ion counts
- Average Ion count [13]: 1740 ion counts
- Ion count above background [13]: 562 ion counts
- Moles ^146Nd Ab detected per ROI [13]: 3.15e-19 mol
- ^146Nd Ab/peptide [13]: 1.4%
- Integrated Ion counts (per 150 micron square ROI) [14]: 1720 ion counts
- Integrated Ion counts (per 150 micron square ROI) [15]: 39300 ion counts
- Integrated Ion counts (per 150 micron square ROI) [16]: 48700 ion counts
- Integrated Ion counts (per 150 micron square ROI) [17]: 880000 ion counts
- Integrated Ion counts (per 150 micron square ROI) [18]: 1760 ion counts
- Average Ion count [19]: 32600 ion counts
- Ion count above background [19]: 31500 ion counts
- Moles ^146Nd Ab detected per ROI [19]: 1.76e-17 mol
- ^146Nd Ab/peptide [19]: 0.78%
- Integrated Ion counts (per 150 micron square ROI) [20]: 1450 ion counts
- Integrated Ion counts (per 150 micron square ROI) [21]: 43900 ion counts
- Integrated Ion counts (per 150 micron square ROI) [22]: 32400 ion counts
- Average Ion count [23]: 1280 ion counts
- Average Ion count [24]: 1310 ion counts
- Ion count above background [24]: 134 ion counts
- Moles ^146Nd Ab detected per ROI [24]: 7.5e-20 mol
- ^146Nd Ab/peptide [24]: 3.33%
- Average Ion count [25]: 6400 ion counts
- Ion count above background [25]: 522 ion counts
- Moles ^146Nd Ab detected per ROI [25]: 2.93e-18 mol
- ^146Nd Ab/peptide [25]: 1.3%
- Integrated Ion counts (per 150 micron square ROI) [26]: 976 ion counts
- Integrated Ion counts (per 150 micron square ROI) [27]: 1350 ion counts
- Integrated Ion counts (per 150 micron square ROI) [28]: 42200 ion counts
- Integrated Ion counts (per 150 micron square ROI) [29]: 7750 ion counts
- Average Ion count [30]: 58300 ion counts
- Ion count above background [30]: 56900 ion counts
- Moles ^146Nd Ab detected per ROI [30]: 3.2e-17 mol
- ^146Nd Ab/peptide [30]: 0.14%
Substance: Fluidigm EPR17509-^146Nd antibody

Source: US20200292536A1
